Target: FZD1/2/4/5/7/8
Assay: cell-based or functional assay

B1: CT0001 (bispecific antibody)
heavy 1: EVQLVESGGGLVQPGGSLRLSCAASGFNIHSSSIHWVRQAPGKGLEWVAATYSSFGSITYADSVKGRFTISADTSKNTAYLQMNSLRAEDTAVYYCARYHHPFGYALDYWGQGTLVTVSSASTKGPSVFPLAPSSKSTSGGTAALGCLVKDYFPEPVTVSWNSGALTSGVHTFPAVLQSSGLYSLSSVVTVPSSSLGTQTYICNVNHKPSNTKVDKKVEPKSCDKTHTCPPCPAPELLGGPSVFLFPPKPKDTLMISRTPEVTCVVVDVSHEDPEVKFNWYVDGVEVHNAKTKPREEQYNSTYRVVSVLTVLHQDWLNGKEYKCKVSNKALPAPIEKTISKAKGQPREPQVYTLPPIRELMTSNQVSLSCAVKGFYPSDIAVEWESNGQPENNYKTTPPVLDSDGSFFLVSKLTVDKSRWQQGNVFSCSVMHEALHNHYTQKSLSLSPGKSGSETPGTSESATPESGGGEVQLVESGGGLVQPGGSLRLSCAASGFNISSYYIHWVRQAPGKGLEWVASIYSSYGYTSYADSVKGRFTISADTSKNTAYLQMNSLRAEDTAVYYCARTVRGSKKPYFSGWAMDYWGQGTLVTVSSGGGGSDIQMTQSPSSLSASVGDRVTITCRASQSVSSAVAWYQQKPGKAPKLLIYSASSLYSGVPSRFSGSRSGTDFTLTISSLQPEDFATYYCQQYSWGPFTFGQGTKVEIK
heavy 2: EVQLVESGGGLVQPGGSLRLSCAASGFNIHSSSIHWVRQAPGKGLEWVAATYSSFGSITYADSVKGRFTISADTSKNTAYLQMNSLRAEDTAVYYCARYHHPFGYALDYWGQGTLVTVSSASTKGPSVFPLAPSSKSTSGGTAALGCLVKDYFPEPVTVSWNSGALTSGVHTFPAVLQSSGLYSLSSVVTVPSSSLGTQTYICNVNHKPSNTKVDKKVEPKSCDKTHTCPPCPAPELLGGPSVFLFPPKPKDTLMISRTPEVTCVVVDVSHEDPEVKFNWYVDGVEVHNAKTKPREEQYNSTYRVVSVLTVLHQDWLNGKEYKCKVSNKALPAPIEKTISKAKGQPREPMVFDLPPSREEMTKNQVSLWCMVKGFYPSDIAVEWESNGQPENNYKTTPPVLDSDGSFFLYSKLTVDKSRWQQGNVFSCSVMHEALHNHYTQKSLSLSPGKSGSETPGTSESATPESGGGEVQLVESGGGLVQPGGSLRLSCAASGFNISYSSIHWVRQAPGKGLEWVAYISSYYGYTYYADSVKGRFTISADTSKNTAYLQMNSLRAEDTAVYYCARAHYFPWAGAMDYWGQGTLVTVSSGGGGSDIQMTQSPSSLSASVGDRVTITCRASQSVSSAVAWYQQKPGKAPKLLIYSASSLYSGVPSRFSGSRSGTDFTLTISSLQPEDFATYYCQQYYWPITFGQGTKVEIK
light: DIQMTQSPSSLSASVGDRVTITCRASQSVSSAVAWYQQKPGKAPKLLIYSASSLYSGVPSRFSGSRSGTDFTLTISSLQPEDFATYYCQQGVYLFTFGQGTKVEIKRTVAAPSVFIFPPSDEQLKSGTASVVCLLNNFYPREAKVQWKVDNALQSGNSQESVTEQDSKDSTYSLSSTLTLSKADYEKHKVYACEVTHQGLSSPVTKSFNRGEC
% Wnt Maxima Avg: 57% | EC50 (nM), TOPFLASH assay: 0.3 nM | Maximal Signal (% Wnt3a maxima) (% Wnt3a maxima): 57 | Topflash EC50 (nM) Avg: 0.3 nM
